# ± gives the standard error. For some assays here: This sample holds only a part of the variants without activity.
# B1: glmS ribozyme (parent)
# chain: AUAAAAGCGCCAGAACUACAGAAAUGUAGUUGACGAGGAGGAGGUUUAUCGAAUUUUCGGCGGAUGCCUCCAAA
# Columns and labels:
# Details in all cases: with glucosamine-6-phosphate
# [1] = variants of: B1; experiment: kcat; higher = faster cleavage; RNA array
# In short: (§1)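 E. coli RNA polymerase transcribed barcoded ribozyme variants in situ on sequenced MiSeq chips, which were tracked via a hybridised Cy3 probe at 37 °C. Tiles were imaged over ~14 h after glucosamine-6-phosphate (40 μM to 10 mM) in HEPES/KCl/Mg(OAc)2 buffer was flowed in. Normalised per-tile medians were fit to one- or two-exponential decays for kobs, and kcat and KM came from weighted Michaelis–Menten fits.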
# [2] = variants of: B1; experiment: KM; higher = weaker cofactor use; RNA array
# In short: as §1
# [3] = variants of: B1; experiment: self-cleavage kobs at 640 uM GlcN6P; higher = faster cleavage; RNA array
# In short: as §1
# [4] = variants of: B1; experiment: self-cleavage kobs at 2500 uM GlcN6P; higher = faster cleavage; RNA array
# In short: as §1
# [5] = variants of: B1; experiment: self-cleavage kobs at 10000 uM GlcN6P; higher = faster cleavage; RNA array
# In short: as §1
# [6] = variants of: B1; experiment: self-cleavage kobs at 160 uM GlcN6P; higher = faster cleavage; RNA array
# In short: as §1
# [7] = variants of: B1; experiment: self-cleavage kobs at 40 uM GlcN6P; higher = faster cleavage; RNA array
# In short: as §1
Variant,kcat [1] [s⁻¹],KM [2] [µM],self-cleavage kobs at 640 uM GlcN6P [3] [s⁻¹],self-cleavage kobs at 2500 uM GlcN6P [4] [s⁻¹],self-cleavage kobs at 10000 uM GlcN6P [5] [s⁻¹],self-cleavage kobs at 160 uM GlcN6P [6] [s⁻¹],self-cleavage kobs at 40 uM GlcN6P [7] [s⁻¹]
C11U G59U,0.000274 ± 3.6e-06,1920 ± 51,6.88e-05 ± 6.5e-06,0.000155 ± 1.6e-05,0.00023 ± 1.9e-05,,
A6G A14C U54G,3.49e-05 ± 4.1e-06,,,3.32e-05 ± 1.2e-05,3.47e-05 ± 1.5e-05,,
G13U U57C,4.31e-05 ± 6.8e-06,,,3.41e-05 ± 1.3e-05,3.63e-05 ± 1.8e-05,,
A33U U49G,1.42e-05 ± 5.2e-07,44.7 ± 12,< 1e-05,,,< 1e-05,
C50G G66A,4.08e-05 ± 1e-05,,,,,5.66e-05 ± 2.2e-05,
A14G C70A,0.000511 ± 0.0001,256 ± 76,0.000328 ± 4.7e-05,0.000484 ± 8.1e-05,,0.000287 ± 4.4e-05,6.67e-05 ± 5.7e-06
A14G C70U,0.0485 ± 0.02,1020 ± 470,0.0183 ± 0.0066,,,0.00502 ± 0.002,0.00188 ± 0.00021
U31G U47A,0.00848 ± 0.0027,2290 ± 990,0.00211 ± 0.00035,0.00332 ± 0.00063,0.00821 ± 0.0011,0.000474 ± 7e-05,0.000201 ± 2.8e-05
A12G U47A,0.00138 ± 0.00029,5500 ± 1600,0.000152 ± 1.9e-05,0.000455 ± 7.1e-05,0.000864 ± 0.00013,,
U54A A64G,0.0348 ± 0.011,2310 ± 830,0.00654 ± 0.0014,,0.029 ± 0.0072,0.00313 ± 0.0007,0.00058 ± 7.4e-05
A14G C58U,0.000263 ± 4.8e-05,,,5.32e-05 ± 1.9e-05,0.000129 ± 2.9e-05,,< 1e-05
U30C C71A,9.39e-05 ± 4.7e-06,1300 ± 180,3.17e-05 ± 8.4e-06,6.1e-05 ± 9.3e-06,8.36e-05 ± 1.3e-05,,
C58A U65C,6.66e-05 ± 7.6e-06,5030 ± 1300,,,4.42e-05 ± 2.2e-05,,
A52G U54A,0.00109 ± 0.00027,1560 ± 590,0.000442 ± 7.6e-05,0.00057 ± 0.00011,0.00101 ± 0.0002,9.56e-05 ± 1.7e-05,
A52G U54G,0.00117 ± 0.00021,3060 ± 840,0.000183 ± 2.3e-05,0.000616 ± 8.2e-05,0.000855 ± 0.00012,6.71e-05 ± 1.6e-05,
U46C U65A,0.00399 ± 0.0019,,0.000444 ± 0.00012,0.00143 ± 0.00037,0.00295 ± 0.00065,,7.93e-05 ± 2.3e-05
U46C U65G,0.000138 ± 2.3e-05,,2.77e-05 ± 1.3e-05,0.000117 ± 2.4e-05,0.000113 ± 1.5e-05,,

Variant,kcat [1] [s⁻¹],KM [2] [µM],self-cleavage kobs at 640 uM GlcN6P [3] [s⁻¹],self-cleavage kobs at 2500 uM GlcN6P [4] [s⁻¹],self-cleavage kobs at 10000 uM GlcN6P [5] [s⁻¹],self-cleavage kobs at 160 uM GlcN6P [6] [s⁻¹],self-cleavage kobs at 40 uM GlcN6P [7] [s⁻¹]
C10A A14C C71A,2.17e-05 ± 9.3e-06,,,,,,
C16U G43U,4.2e-05 ± 1.9e-07,1250 ± 27,,2.81e-05 ± 1.3e-05,3.73e-05 ± 1e-05,,
A15U A39G C71G,0.000145 ± 6.1e-05,,0.000116 ± 3.5e-05,9.89e-05 ± 3.7e-05,0.000288 ± 0.0001,,
G13U U45A,0.00214 ± 0.00039,2010 ± 490,0.000543 ± 0.00015,0.00117 ± 0.00036,,0.000142 ± 5.1e-05,4.66e-05 ± 2.1e-05
A12G U55G,0.00137 ± 0.00037,6630 ± 3200,0.000113 ± 1.7e-05,0.000784 ± 0.00017,0.000815 ± 5.8e-05,,
U49G A64U,1.18e-05 ± 9.4e-07,,,,,< 1e-05,< 1e-05
G9A G32C C67A,< 1e-05,304 ± 150,,< 1e-05,,,
U30C A52G,1.33e-05 ± 2.9e-06,,,,,,
G44C U54C,0.000264 ± 8.4e-05,,,0.000133 ± 2.4e-05,0.000179 ± 3e-05,,
G29U U30G,0.00393 ± 0.0013,1780 ± 820,0.00131 ± 0.00023,0.00182 ± 0.00035,0.00493 ± 0.001,0.000286 ± 5.6e-05,9.59e-05 ± 1.7e-05
U30C C67U,0.0001 ± 1.3e-05,927 ± 390,3.56e-05 ± 7.9e-06,8.48e-05 ± 1.8e-05,9.05e-05 ± 1e-05,3.33e-05 ± 1.3e-05,
G59U C71G,1.13e-05 ± 1.7e-07,817 ± 71,,,,< 1e-05,< 1e-05
U31G C50U,2.22e-05 ± 1.4e-06,,,,,,< 1e-05
G29C U46G,0.000315 ± 9.7e-05,,7.38e-05 ± 2.1e-05,0.000285 ± 7.3e-05,0.000234 ± 7.5e-05,,
G51U C67U,< 1e-05,,,,< 1e-05,,
U46C U56G,0.00195 ± 0.00027,1390 ± 310,0.000736 ± 8.1e-05,0.00128 ± 0.00017,0.00164 ± 0.00018,0.000159 ± 3e-05,5.6e-05 ± 9.5e-06
U47A U65G U69C,0.00209 ± 0.00057,2700 ± 1100,,0.00114 ± 0.00024,0.00154 ± 0.0005,0.000128 ± 3.1e-05,

# Source: the supplement of paper PMC7125110
